The values below come from patent EP3418383A1, “MODIFIED L-ASPARAGINASE” (XL-protein GmbH, priority 2017, dated 2018).

Data set [1] is described as follows: L-asparaginase aminohydrolase activity, Nessler reagent assay (Example 1). The format is biochemical. Conditions: for Enzyme activity compared to the equally assayed non-modified Crisantaspase: Nessler assay of Example 1. On the procedure:
The modified proteins were purified by anion exchange chromatography (AEX) on a MonoQ HR5/5 column (GE Healthcare) using 25 mM Na-borate pH 9.0, 1 mM EDTA as running buffer and a NaCl concentration gradient from 0 to 1 M to elute the proteins. L-asparaginase aminohydrolase activity of each Crisantaspase modified protein was determined by reaction of ammonia that is liberated via L-asparagine enzymatic activity with the Nessler reagent. Briefly, 50 µL of enzyme solution was mixed with 20 mM of L-asparagine in a 100 mM sodium borate buffer pH 8.6 containing 0.015 % (w/v) bovine serum albumin and incubated for 15 min at 37 °C. The reaction was stopped by addition of 200 µL of Nessler reagent (Sigma-Aldrich). Absorbance of this solution was measured at 450 nm. The activity was calculated from a calibration curve that was obtained from ammonium sulphate as reference. Table 2: Enzymatic activities of Crisantaspase conjugated with Pga-P/A(20)-Ahx peptide in different amounts

The nature of data set [2]: Analytical gel filtration (SEC), hydrodynamic volume / apparent molecular size. The format is physicochemical. As to conditions: tetramer, Superdex S200 10/300 GL, PBS, 1 mg/ml. From the text: In order to avoid polymerization of the peptides upon chemical activation of the C-terminus, the N-terminus was protected with pyroglutamyl (Pga) residue. Aminohexanoic acid (Ahx) was incorporated at the C-terminus of the peptides to serve as linker. […] The hydroxybenzotriazol (HOBt) active ester of the peptide is subsequently used to derivatize the amino groups (ε-amino groups of lysine residues or α-amino group of N-terminus) of Crisantaspase with the P/A peptide through formation of peptide or isopeptide bonds, while free HOBt is released. This coupling step is performed in aqueous solution (e.g. PBS buffer) with a content of organic solvent ≤ 30 %. […] The number of coupled P/A peptides can be determined by counting the bands in that ladder starting from the unconjugated Crisantaspase as marked on the right. […] Separation of remaining uncoupled peptide and other non-proteinous byproducts of the chemical conjugation devoid of UV absorption at 280 nm was monitored by the 225 nm UV trace. […]
(In gel filtration, larger molecules generally elute earlier.)

The nature of data set [3]: L-asparaginase enzyme activity, Nessler endpoint assay, specific activity (Example 8). The class given is biochemical. Conditions: Crisantaspase expression system E. coli; for Nessler (Average): average of plates 1-3; for Nessler Plate 1 / Nessler Plate 2 / Nessler Plate 3: specific activity. The method, then: PASylated L-asparaginase enzyme activity was determined by catalysis of the conversion of L-asparagine into L-aspartic acid. This reaction liberates one mole of ammonia per mole of converted L-asparagine. The released ammonia is detected using Nessler's reagent. In the presence of Nessler's reagent the ammonia will form a watersoluble yellow complex that can be quantified by absorbance measurement at 450 nm (Mashburn et al. (1963) Biochem. Biophys. Res. Commun. 12, 50). One unit of L-asparaginase enzyme activity (International Unit or IU) is defined as the amount of enzyme that catalyzes the conversion of one µmol of L-asparagine per minute. The specific activity of the samples (IU/mg) is determined by dividing the value of L-asparaginase activity expressed in IU/mL by the protein concentration expressed in mg/mL. The mass of the protein monomer with the PASylated sequence was measured.
The measurement of L-asparaginase activity is based on an endpoint assay in which the sample is diluted to a series of final enzyme concentrations which are then incubated at 37°C under saturating L-asparagine concentration for 15 minutes. The reaction is stopped by addition of Nessler's reagent and the amount of ammonia produced by the reaction is extrapolated from a calibration curve constructed from known quantities of ammonium sulfate used as standard. A plot of enzyme concentration versus ammonia is then created for each sample and the slope of the curve divided by the reaction time to obtain the specific activity in IU/mg. Specific activity is reported as IU/mg and is reported to the nearest whole number.

Data set [4] in a line: Pharmacokinetics, plasma asparaginase activity after single IV bolus dose. As to conditions: single IV bolus 25 IU/kg body weight, male CD-1 mice, non-compartmental. The format is in vivo. On the procedure:
The pharmacokinetic profile of E. coli expressed recombinant crisantaspase as a PASylated fusion protein (PA-200) or chemically conjugated to PA-peptides (PA-20) was characterized following administration of a single intravenous bolus dose to CD-1 mice. The CD-1 mice is a model for a healthy mouse.
All animals received a single intravenous (IV) bolus via the lateral tail vein (10 mL/kg) based on the body weight taken prior to dosing. Individual doses were calculated based upon the most recent individual body weights to provide the proper dose. The first day of dosing was based on study day 0 body weights.
PASylated asparaginase was administered as a single IV dose of 25 IU/kg body weight to mice. […] Asparaginase activity in mouse plasma was measured using a qualified biochemical assay as described in the previous examples. […]
Asparaginase activity was measured as the concentration of asparaginase in the plasma samples as previously described (Allas et al. (2009) Blood, 114, 2033). […] The plasma asparaginase activity versus time data were analyzed using non-compartmental methods with sparse sampling in an IV bolus administration model. Activity values below the limit of quantitation of the assay (10 U/L) were set to zero in the calculation of group means. […]

For data set [5] the following is noted: children who received the drug; cited from earlier work.
For data set [6] the following is noted: PEGylated enzyme compared to the unmodified L-asparaginase; cited from earlier work.
Setting [7] is: 3.5 mg PA peptide/mg Crisantaspase, 10.4 mol PA peptide/mol monomer.
Where [8] appears, read: 5 mg PA peptide/mg Crisantaspase, 11.2 mol PA peptide/mol monomer.
[9] abbreviates: 7.5 mg PA peptide/mg Crisantaspase, 11.7 mol PA peptide/mol monomer.
[10] abbreviates: 10 mg PA peptide/mg Crisantaspase, 12.0 mol PA peptide/mol monomer.

In the case of “Pyroglutamoyl-P/A(20)-aminohexanoyl-Crisantaspase”, the Rel. activity is given as 94.1% in data set [1] (setting [7]), 80.7% in data set [1] (setting [8]), 74.3% in data set [1] (setting [9]) and 47.4% in data set [1] (setting [10]). The Specific activity in data set [1] (setting [7]) is recorded as 508 ± 20 U/mg; in data set [1] (setting [8]), 436 ± 22 U/mg; in data set [1] (setting [9]), 401 ± 21 U/mg; in data set [1] (setting [10]) it was 256 ± 20 U/mg.
“Pyroglutamoyl-P/A(40)-aminohexanoyl-Crisantaspase [Crisantaspase/PA(40) modified protein]”: the apparent molecular size in data set [2] came out at 820 kDa. Moreover, in data set [1], the “Enzyme activity compared to the equally assayed non-modified Crisantaspase” value was 78.2%. Also, in data set [3], the “Nessler (Average)” value stood at 528 IU/mg, the “Nessler Plate 1” value was determined as 567 IU/mg, the “Nessler Plate 2” value is 528 IU/mg and the “Nessler Plate 3” value worked out at 490 IU/mg.
A word on the t½: it is the time needed for the level to fall by half in the phase considered. Low values mean rapid decline, high ones slow decline. In the case of “Pyroglutamoyl-P/A(20)-aminohexanoyl-Crisantaspase [Crisantaspase/PA(20) modified protein]”, the apparent molecular size in data set [2] is on record as 531 kDa. Moreover, the “Enzyme activity compared to the equally assayed non-modified Crisantaspase” value in data set [1] is listed as 91.2%. In addition, the t½ in data set [4] was 50.2 h. In addition, in data set [3], the “Nessler (Average)” value was determined as 676 IU/mg, the “Nessler Plate 1” value amounted to 694 IU/mg, the “Nessler Plate 2” value amounted to 732 IU/mg and the “Nessler Plate 3” value came to 602 IU/mg.

B1: Oncaspar®: E. coli L-asparaginase modified at multiple lysine residues using 5 kDa mPEG-succinimidyl succinate (conjugate, UniProt P00805 23-348, looked up)
L-asparaginase 2: LPNITILATGGTIAGGGDSATKSNYTVGKVGVENLVNAVPQLKDIANVKGEQVVNIGSQDMNDNVWLTLAKKINTDCDKTDGFVITHGTDTMEETAYFLDLTVKCDKPVVMVGAMRPSTSMSADGPFNLYNAVVTAADKASANRGVLVVMNDTVLDGRDVTKTNTTDVATFKSVNYGPLGYIHNGKIDYQRTPARKHTSDTPFDVSKLNELPKVGIVYNYANASDLPAKALVDAGYDGIVSAGVGNGNLYKSVFDTLATAAKTGTAVVRSSRVPTGATTQDAEVDDAKYGFVASGTLNPQKARVLLQLALTQTKDPQQIQQIFNQY
modifications: 5 kDa mPEG succinimidyl succinate
notes: E. coli L-asparaginase modified at multiple lysine residues using 5 kDa mPEG-succinimidyl succinate
Regarding B1, the “children who had an allergic reaction” value in data set [5] was 30-41%. The in vitro activity result in data set [6] is reported as “approximately 50%”.
